Results published in patent publication KR20190060702A (dated 2019).

Biological target: T1, 사람 ICAM4 (intercellular adhesion molecule 4) (human, UniProt Q14773 31-271)
T1 construct: whole, on cells; Always on cells that carry it naturally; no recombinant ICAM4 was used; also called CD242; 1E1 항원
T1 sequence (looked up): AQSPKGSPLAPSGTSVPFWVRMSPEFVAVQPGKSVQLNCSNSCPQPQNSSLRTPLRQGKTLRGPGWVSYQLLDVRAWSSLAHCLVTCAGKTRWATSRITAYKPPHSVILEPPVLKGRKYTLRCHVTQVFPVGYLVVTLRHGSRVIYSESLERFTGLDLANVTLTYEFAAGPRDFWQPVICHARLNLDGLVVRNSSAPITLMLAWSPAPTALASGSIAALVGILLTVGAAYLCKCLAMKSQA
Experiment: binding affinity compared with the chimeric antibody (Fig. 5)

B1: 항-ICAM4 인간화항체 VH2A 및 VL2C의 조합 (antibody, V domains shown)
VH: QVQLVESGGGLVKPGGSLRLSCAVSGFSLTDYGVGWIRQAPGKGLEWLGVMWGGGRTYYNAPVKSRLTISKDNAKNSVYLQMNSLRAEDTAVYYCVKTGQDYAVDYWGQGTLVTVSS
VL: EIVLTQSPATLSLSPGERATLSCRASKSVSKYLAWYQEKPGQANRLLIYSGSTLQSGIPARFSGSGSGTDFTLTISSLEPEDFAVYYCQQHNVYPWTFGQGTKVEIK
notes: also called VH2A/VL2C
Question: Does B1 bind?
Answer: Result: binds
